# From article PMC4372372
# Target: rPmMasSPH1 (His-tagged recombinant C-terminal SP-like domain of PmMasSPH1) (Penaeus monodon)
substance,measurement,value
rPmPPAE2 (His-tagged recombinant SP domain of PmPPAE2) (domain or fragment),"PGN-triggered PO activity of shrimp hemolymph in vitro (L-DOPA, change of A490 at 5 min), with 0.25 ug PGN and 1 uM of each recombinant protein, relative to hemolymph alone",102%
